T1: TNFR1 (Homo sapiens, UniProt P19438)
T1 chain: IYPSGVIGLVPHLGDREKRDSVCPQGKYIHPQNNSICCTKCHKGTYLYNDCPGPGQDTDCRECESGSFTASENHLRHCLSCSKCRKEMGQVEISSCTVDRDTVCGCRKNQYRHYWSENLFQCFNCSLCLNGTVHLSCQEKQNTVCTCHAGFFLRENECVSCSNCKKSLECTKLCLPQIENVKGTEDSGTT

B1: A47K (designed binder)
chain: SMEEEVEKAAKEYEKKKKEAIEKHLEKLKAKDKEAAERFLKELEEAKKEYAKDEAKTMSEEEAKRRAKKYKEKVLLSELSEEEQKEIKEAEEKLVRTILKYVEEAAK
B2: R66P (designed binder)
chain: SMEEEVEKAAKEYEKKKKEAIEKHLEKLKAKDKEAAERFLKELEEAAKEYAKDEAKTMSEEEAKRPAKKYKEKVLLSELSEEEQKEIKEAEEKLVRTILKYVEEAAK
B3: E14M (designed binder)
chain: SMEEEVEKAAKEYMKKKKEAIEKHLEKLKAKDKEAAERFLKELEEAAKEYAKDEAKTMSEEEAKRRAKKYKEKVLLSELSEEEQKEIKEAEEKLVRTILKYVEEAAK
B4: V95S (designed binder)
chain: SMEEEVEKAAKEYEKKKKEAIEKHLEKLKAKDKEAAERFLKELEEAAKEYAKDEAKTMSEEEAKRRAKKYKEKVLLSELSEEEQKEIKEAEEKLSRTILKYVEEAAK
B5: E45H (designed binder)
chain: SMEEEVEKAAKEYEKKKKEAIEKHLEKLKAKDKEAAERFLKELEHAAKEYAKDEAKTMSEEEAKRRAKKYKEKVLLSELSEEEQKEIKEAEEKLVRTILKYVEEAAK
B6: A20H (designed binder)
chain: SMEEEVEKAAKEYEKKKKEHIEKHLEKLKAKDKEAAERFLKELEEAAKEYAKDEAKTMSEEEAKRRAKKYKEKVLLSELSEEEQKEIKEAEEKLVRTILKYVEEAAK
B7: E89L (designed binder)
chain: SMEEEVEKAAKEYEKKKKEAIEKHLEKLKAKDKEAAERFLKELEEAAKEYAKDEAKTMSEEEAKRRAKKYKEKVLLSELSEEEQKEIKLAEEKLVRTILKYVEEAAK
B8: S1H (designed binder)
chain: HMEEEVEKAAKEYEKKKKEAIEKHLEKLKAKDKEAAERFLKELEEAAKEYAKDEAKTMSEEEAKRRAKKYKEKVLLSELSEEEQKEIKEAEEKLVRTILKYVEEAAK
B9: E12Y (designed binder)
chain: SMEEEVEKAAKYYEKKKKEAIEKHLEKLKAKDKEAAERFLKELEEAAKEYAKDEAKTMSEEEAKRRAKKYKEKVLLSELSEEEQKEIKEAEEKLVRTILKYVEEAAK
B10: A105K (designed binder)
chain: SMEEEVEKAAKEYEKKKKEAIEKHLEKLKAKDKEAAERFLKELEEAAKEYAKDEAKTMSEEEAKRRAKKYKEKVLLSELSEEEQKEIKEAEEKLVRTILKYVEEKAK
B11: I87R (designed binder)
chain: SMEEEVEKAAKEYEKKKKEAIEKHLEKLKAKDKEAAERFLKELEEAAKEYAKDEAKTMSEEEAKRRAKKYKEKVLLSELSEEEQKERKEAEEKLVRTILKYVEEAAK
B12: E4R (designed binder)
chain: SMEREVEKAAKEYEKKKKEAIEKHLEKLKAKDKEAAERFLKELEEAAKEYAKDEAKTMSEEEAKRRAKKYKEKVLLSELSEEEQKEIKEAEEKLVRTILKYVEEAAK
B13: A55E (designed binder)
chain: SMEEEVEKAAKEYEKKKKEAIEKHLEKLKAKDKEAAERFLKELEEAAKEYAKDEEKTMSEEEAKRRAKKYKEKVLLSELSEEEQKEIKEAEEKLVRTILKYVEEAAK
B14: F39A (designed binder)
chain: SMEEEVEKAAKEYEKKKKEAIEKHLEKLKAKDKEAAERALKELEEAAKEYAKDEAKTMSEEEAKRRAKKYKEKVLLSELSEEEQKEIKEAEEKLVRTILKYVEEAAK
B15: K17S (designed binder)
chain: SMEEEVEKAAKEYEKKSKEAIEKHLEKLKAKDKEAAERFLKELEEAAKEYAKDEAKTMSEEEAKRRAKKYKEKVLLSELSEEEQKEIKEAEEKLVRTILKYVEEAAK
B16: E54W (designed binder)
chain: SMEEEVEKAAKEYEKKKKEAIEKHLEKLKAKDKEAAERFLKELEEAAKEYAKDWAKTMSEEEAKRRAKKYKEKVLLSELSEEEQKEIKEAEEKLVRTILKYVEEAAK
B17: E4P (designed binder)
chain: SMEPEVEKAAKEYEKKKKEAIEKHLEKLKAKDKEAAERFLKELEEAAKEYAKDEAKTMSEEEAKRRAKKYKEKVLLSELSEEEQKEIKEAEEKLVRTILKYVEEAAK
B18: E92Y (designed binder)
chain: SMEEEVEKAAKEYEKKKKEAIEKHLEKLKAKDKEAAERFLKELEEAAKEYAKDEAKTMSEEEAKRRAKKYKEKVLLSELSEEEQKEIKEAEYKLVRTILKYVEEAAK
B19: K85H (designed binder)
chain: SMEEEVEKAAKEYEKKKKEAIEKHLEKLKAKDKEAAERFLKELEEAAKEYAKDEAKTMSEEEAKRRAKKYKEKVLLSELSEEEQHEIKEAEEKLVRTILKYVEEAAK
B20: E37R (designed binder)
chain: SMEEEVEKAAKEYEKKKKEAIEKHLEKLKAKDKEAARRFLKELEEAAKEYAKDEAKTMSEEEAKRRAKKYKEKVLLSELSEEEQKEIKEAEEKLVRTILKYVEEAAK
B21: A63T (designed binder)
chain: SMEEEVEKAAKEYEKKKKEAIEKHLEKLKAKDKEAAERFLKELEEAAKEYAKDEAKTMSEEETKRRAKKYKEKVLLSELSEEEQKEIKEAEEKLVRTILKYVEEAAK
B22: K71T (designed binder)
chain: SMEEEVEKAAKEYEKKKKEAIEKHLEKLKAKDKEAAERFLKELEEAAKEYAKDEAKTMSEEEAKRRAKKYTEKVLLSELSEEEQKEIKEAEEKLVRTILKYVEEAAK
B23: E82H (designed binder)
chain: SMEEEVEKAAKEYEKKKKEAIEKHLEKLKAKDKEAAERFLKELEEAAKEYAKDEAKTMSEEEAKRRAKKYKEKVLLSELSEHEQKEIKEAEEKLVRTILKYVEEAAK
B24: K68E (designed binder)
chain: SMEEEVEKAAKEYEKKKKEAIEKHLEKLKAKDKEAAERFLKELEEAAKEYAKDEAKTMSEEEAKRRAEKYKEKVLLSELSEEEQKEIKEAEEKLVRTILKYVEEAAK
B25: K93C (designed binder)
chain: SMEEEVEKAAKEYEKKKKEAIEKHLEKLKAKDKEAAERFLKELEEAAKEYAKDEAKTMSEEEAKRRAKKYKEKVLLSELSEEEQKEIKEAEECLVRTILKYVEEAAK
B26: L43S (designed binder)
chain: SMEEEVEKAAKEYEKKKKEAIEKHLEKLKAKDKEAAERFLKESEEAAKEYAKDEAKTMSEEEAKRRAKKYKEKVLLSELSEEEQKEIKEAEEKLVRTILKYVEEAAK
B27: I98H (designed binder)
chain: SMEEEVEKAAKEYEKKKKEAIEKHLEKLKAKDKEAAERFLKELEEAAKEYAKDEAKTMSEEEAKRRAKKYKEKVLLSELSEEEQKEIKEAEEKLVRTHLKYVEEAAK
B28: S77P (designed binder)
chain: SMEEEVEKAAKEYEKKKKEAIEKHLEKLKAKDKEAAERFLKELEEAAKEYAKDEAKTMSEEEAKRRAKKYKEKVLLPELSEEEQKEIKEAEEKLVRTILKYVEEAAK
B29: V102M (designed binder)
chain: SMEEEVEKAAKEYEKKKKEAIEKHLEKLKAKDKEAAERFLKELEEAAKEYAKDEAKTMSEEEAKRRAKKYKEKVLLSELSEEEQKEIKEAEEKLVRTILKYMEEAAK
B30: K31R (designed binder)
chain: SMEEEVEKAAKEYEKKKKEAIEKHLEKLKARDKEAAERFLKELEEAAKEYAKDEAKTMSEEEAKRRAKKYKEKVLLSELSEEEQKEIKEAEEKLVRTILKYVEEAAK
B31: K48R (designed binder)
chain: SMEEEVEKAAKEYEKKKKEAIEKHLEKLKAKDKEAAERFLKELEEAAREYAKDEAKTMSEEEAKRRAKKYKEKVLLSELSEEEQKEIKEAEEKLVRTILKYVEEAAK
B32: V74G (designed binder)
chain: SMEEEVEKAAKEYEKKKKEAIEKHLEKLKAKDKEAAERFLKELEEAAKEYAKDEAKTMSEEEAKRRAKKYKEKGLLSELSEEEQKEIKEAEEKLVRTILKYVEEAAK
B33: E54A (designed binder)
chain: SMEEEVEKAAKEYEKKKKEAIEKHLEKLKAKDKEAAERFLKELEEAAKEYAKDAAKTMSEEEAKRRAKKYKEKVLLSELSEEEQKEIKEAEEKLVRTILKYVEEAAK
B34: D32G (designed binder)
chain: SMEEEVEKAAKEYEKKKKEAIEKHLEKLKAKGKEAAERFLKELEEAAKEYAKDEAKTMSEEEAKRRAKKYKEKVLLSELSEEEQKEIKEAEEKLVRTILKYVEEAAK
B35: K16Q (designed binder)
chain: SMEEEVEKAAKEYEKQKKEAIEKHLEKLKAKDKEAAERFLKELEEAAKEYAKDEAKTMSEEEAKRRAKKYKEKVLLSELSEEEQKEIKEAEEKLVRTILKYVEEAAK

Target: T1, TNFR1
Assay: yeast display SC50

| Binder | apparent Kd (screen) [nM] |
| --- | --- |
| B1 | 0.49 |
| B2 | 0.593 |
| B3 | 12.5 |
| B4 | 13.8 |
| B5 | 3.3 |
| B6 | 0.446 |
| B7 | 1.86 |
| B8 | 1.4 |
| B9 | 0.593 |
| B10 | 1.86 |
| B11 | 16.7 |
| B12 | 1.69 |
| B13 | 1.27 |
| B14 | 3 |
| B15 | 1.27 |
| B16 | 0.869 |
| B17 | 3.3 |
| B18 | 13.8 |

| Binder | apparent Kd (screen) [nM] |
| --- | --- |
| B19 | 0.869 |
| B20 | 0.446 |
| B21 | 16.7 |
| B22 | 0.49 |
| B23 | 0.446 |
| B24 | 1.4 |
| B25 | 1.54 |
| B26 | 0.49 |
| B27 | 5.84 |
| B28 | 11.4 |
| B29 | 0.49 |
| B30 | 0.49 |
| B31 | 0.593 |
| B32 | 1.05 |
| B33 | 3.63 |
| B34 | 0.593 |
| B35 | 0.718 |

Reference: paper PMC12416549 (2024)
